Legend:
[1] = target: T1, human EGFRvIII expressed on cells (human, UniProt P00533 298-1210); test: flow cytometry, F98-npEGFRvIII cells
T1 construct: the F98-npEGFRvIII line was obtained from ATCC and its construct is not described; also called F98-npEGFRvIII; F98-EGFRvIII

[2] = target: T2, 8-histidine tagged recombinant wild-type protein EGFRwt (UniProt P00533 25-645, limits assumed); test: SPR, captured by anti-mouse Fc
T2 construct: not shown: 8-histidine tag

[3] = target: T1, human EGFRvIII expressed on cells; test: flow cytometry, F98-npEGFRvIII against F98, F98-EGFRwt and A431 cells
[4] = target: T3, Monomeric 8-histidine tagged human EGFRvIII extracellular domain (human, UniProt P00533 298-645); test: SPR, captured by anti-mouse Fc, 37 C
T3 construct: Analyte in all SPR assays; not shown: 8-histidine tag
Source text: To generate human antibodies against EGFRvIII, transgenic AlivaMab mice (Ablexis LLC, San Francisco, Calif.) were immunized with alternating schedule of paraformaldehyde-fixed rat glioblastoma cell line expressing EGFRvIII, F98-npEGFRvIII (American Type Culture Collection, Manassas, Va.) and peptides (SEQ ID NO: 227: […]) directed to the junction region in EGFRvIII. Hybridomas were generated using standard techniques. To determine the binding affinity and specificity of these hybridomas to EGFRvIII, antibodies in culture supernatants were captured by anti-mouse Fc using Biacore™ T200 biosensor equipped with anti-mouse Fc coupled CM4 sensor chips (Biacore™ AB, Uppsala, Sweden—now GE Healthcare). Monomeric 8-histidine tagged human EGFRvIII extracellular domain was then injected as the analyte at 10-fold dilution series starting with top concentration 1000 nM. Affinity of anti-EGFRvIII antibodies towards human EGFRvIII was measured at 37° C.

% positive [1] [%] | MFI [1] | binding result [2] | fold MFI on EGFRvIII expressing cell line over non-expressing cell lines [3] [fold] | Kd [4] [nM] | koff [4] [s⁻¹] | kon [4] [M⁻¹ s⁻¹] | Binder
98.5 | 3250 | no binding (tested: 1000 nM) | ≥ 10 | 8.2 | 0.000563 | 68800 | 42G9 (antibody, V domains shown, Hybridoma supernatant (AlivaMab mouse); captured/detected via mouse Fc; also called mAb 42G9) VH: QVTLKESGPVLLKPTETLTLTCTVSGFSLSNPRMGVSWIRQPPGKALEWFAHIFSTDEKSLKLSLRSRLTLSKDTSKSQVVLTMTNMAPVDSATYYCARDSSNYEGYFDFWGQGTLVTVSS VL: EVVLTQSPATLSVSPGERATLSCRASQSVRSNLAWYQQKSGQAPRLLIYGSTIRATGVPARFSGSGSGTEFTLTISSLQSEDFAVYYCQQYSDWPFTFGPGTKVDIK
98.5 | 3100 | no binding (tested: 1000 nM) | ≥ 10 | 9.5 | 0.000632 | 66600 | 21E11 (antibody, V domains shown, Hybridoma supernatant (AlivaMab mouse); captured/detected via mouse Fc) VH: QVTLKESGPVLVKPTETLTLTCTVSGFSLSNVRMGVSWIRQPPGKALEWFAHIFSSDEKSIRRSLRSRLTLSKDTSKSQVVLTMTNMDPVDTATYYCARDSSNYEGYFDFWGQGTLVTVSS VL: DMVVTQSPATLSVSPGERATLSCRASQSVGSDLAWYQQPPGQSPRLLIYGASTRATGVPARFSGSGSGTDFTLTITSLESEDFAVYYCQQYNDWPFTFGPGTKVDIK
98.3 | 3440 | no binding (tested: 1000 nM) | ≥ 10 | 12.4 | 0.000733 | 59300 | 12H6 (antibody, V domains shown, Hybridoma supernatant (AlivaMab mouse); captured/detected via mouse Fc) VH: QVTLKESGPVLVKPTETLTLTCTVSGFSLSNARMGVSWIRQPPGKALEWLAHIFSTDEKSIRRSLRSRLTLSKDTSKSQVVLTMTNMDPVDTATYYCARDSSNYEGYFDYWGQGTLVTVSS VL: EVVMTQSPATLSVSPGERATLSCRASQGVSSNFAWYQQRPGQSPRLLLYGASTRATGVPGRFSGSGSGTENILTISSLQSEDFAIYFCQQYKDWPFTFGPGSKVDIK
98.7 | 2990 | no binding (tested: 1000 nM) | ≥ 10 | 12 | 0.000716 | 59700 | 46E10 (antibody, V domains shown, Hybridoma supernatant (AlivaMab mouse); captured/detected via mouse Fc) VH: QVTLKESGPVLVKPTETLTLTCTVSGFSLSNARMGVSWIRQPPGKALEWLAHIFSTDEKSIRRSLRSRLTLSKDTSKSQVVLIMTNMDPVDTATYYCARDSSNYEGYFDYWGQGTLVTVSS VL: EVVMTQSPPNLSVSPGERATLSCRASQSVTSNFAWYQQRPGQSPRLLLYGASTRATGVPGRFSGSGSGTENILTISSLQSEDFAVYFCQQYKDWPFTFGPGSKVDIK
98.2 | 3390 | no binding (tested: 1000 nM) | ≥ 10 | 21.7 | 0.00113 | 52100 | 11B11 (antibody, V domains shown, Hybridoma supernatant (AlivaMab mouse); captured/detected via mouse Fc) VH: QVTLKESGPVLVKPTETLTLTCTVSGFSLSNAKMGVSWIRQPPGKALEWLAHIFSTDEKSIRRSLRSRLTMSKDTSKSQVVLTMTNMDPVDTATYYCVRDSSNYEGYFDYWGQGTLVTVSS VL: EVLMTQSPATLSVSPGERATLSCRASQSVSTNFAWYQQRPGQAPRLLLFGASTRATGIPGRFSGSGSGTENILTISSLQSEDFAIYFCQQYKDWPFTFGPGSKVEIK
98.3 | 3350 | no binding (tested: 1000 nM) | ≥ 10 | 9.6 | 0.000626 | 65400 | 32A10 (antibody, V domains shown, Hybridoma supernatant (AlivaMab mouse); captured/detected via mouse Fc) VH: QVTLKESGPVLVKPTETLTLTCTVSGFSLSNARMGVSWIRQPPGKALEWLAHIFSTDEKSIRRSLRSRLTLSKDTSKSQVVLTMTNMDPVDTATYFCARDSSNYEGYFDYWGQGTLVTVSS VL: EVVMTQSPATLSVSPGERVTLSCRASQSVSSNFAWYQQRPGQAPRLLLYGATTRATGLPGRFSGSGSGTENILTISSLQSEDFAIYFCQQYKDWPFTFGPGSKVDIK

Reference: patent US20190144550A1 (Pfizer, published 2019)
